# Measurements taken from the supplement of paper PMC10567573.
# ± gives the standard deviation.
# Experiment: protein stability index of a GFP-peptide fusion (GPS, HEK-293T) (PSI 1-6); higher = more stable
# Conditions: c terminus: a fixed tail appended
# 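Note: 24-mer peptide tiles fused after GFP, lentivirally expressed, FACS-sorted into six equal bins by GFP/DsRed ratio, decoded by Illumina sequencing, PSI is the read-weighted mean bin number.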
Sequence,protein stability index (treatment: DMSO),"protein stability index (treatment: MLN4924 1 uM, 8 h)"
AAARAAQRRRRVENAGGSPSPEPA [RSAD1],5.25 ± 0.087,5.12 ± 0.44
AARSPQGLGASTAEISARTMQSMF [PTPRD],3.38 ± 0.26,3.29 ± 0.34
AASISDGDCDAREEKQRELARKGS [FAM219A],5.54 ± 0.2,5.52 ± 0.2
AATQALPQDSGTAAWKGRVLLPET [C22orf31],4.11 ± 0.062,4.1 ± 0.24
AAVKAAREAFPSWSSRSPQERSRV [ALDH8A1],3.73 ± 0.23,3.88 ± 0.48
ACALLLTSVDHDRAPVVGVRVNVL [DLC1],2.33 ± 0.32,2.68 ± 0.36
ACRFQEDQEMARDLVERALYSMEC [TCF25],2.34 ± 0.57,2.49 ± 0.53
ADWAVMDVVNYFRTVGFEEQASAF [SAMD13],2.21 ± 0.3,2.59 ± 0.19
AECALVSLKEAEFYDKQLKVLLSG [ZFYVE21],2.86 ± 0.24,3.05 ± 0.48
AEGDSWEEEGFGSSSPVKSPAAPY [WEE1],5.28 ± 0.13,5.19 ± 0.22
AEGRTGFPWIDAIMTQLRQEGWIH [CRY1],2.35 ± 0.3,2.13 ± 0.33
AEMAEDYPRYPDIHDLDLTLLNPR [CLCN6],4.05 ± 0.28,4.21 ± 0.25
AESHASKDVAIDMMDSRTSQQLQL [STX5],4.98 ± 0.11,4.89 ± 0.18
AFGKICHMVSDGSWVVRVQAAKLL [INTS4],2.74 ± 0.49,2.88 ± 0.58
AGFDALQGDPKGEMAATPAGFAQL [HDAC6],4.37 ± 0.21,4.09 ± 0.36
AGGRVFVLPCIQQIQRISLNTLTL [FLOT1],2.96 ± 0.57,2.93 ± 0.59
AGLSLLSPSVMRLVHTQEPGEWLE [ALKBH7],2.71 ± 0.38,2.79 ± 0.24
AHLGEEAHKCLECGKCFSQNTHLT [ZNF263],3.45 ± 0.34,3.55 ± 0.48
AIFDAGTLGGELGALEALELSPPL [FOXJ1],3.26 ± 0.23,3.31 ± 0.31
AIHGYTVWAHNLIAIARLRGSDLK [FBXO33],3.13 ± 0.8,2.46 ± 0.42
AIPEAIGFVMVPFEYRGEQHKTCM [EDNRA],2.36 ± 0.32,2.31 ± 0.27
AIYFTAYDQLKAFLCGRALTSDLY [SLC25A39],3.35 ± 0.83,3.37 ± 0.57

Sequence,protein stability index (treatment: DMSO),"protein stability index (treatment: MLN4924 1 uM, 8 h)"
ALAIKVNLCGHWYYSKACCRSCRP [ADAMTSL2],2.43 ± 0.38,2.77 ± 0.62
ALDERAKVLHEDKQTREQLHSISD [TRIM29],5.25 ± 0.27,5.31 ± 0.37
ALKDNKSPLHLVQMPPVIVETARS [PI4K2A],3.8 ± 0.29,3.82 ± 0.29
ALKEKEKASWSSLSMDEKVELYRI [COX4I1],3.65 ± 0.27,3.95 ± 0.23
ALRAAEVWMDDFKSHVYMAWNIPM [GALNT9],2.35 ± 0.8,2.24 ± 0.71
ALRERWLLEGTPSSASEGDEDLRR [PALM],5 ± 0.25,5.14 ± 0.21
ALRGAAVDEYFRQPVVDTFDIRIL [CARM1],2.48 ± 0.45,2.6 ± 0.27
ALRVQQLVAKELGQTGTRLTPADK [AUP1],4.04 ± 0.18,4.16 ± 0.14
ALYVQAPTVTIEGFLQALSLAVDK [TRIP13],2.09 ± 0.46,2.2 ± 0.17
AMEPEPAPAPAPEEWLDILGNGLL [FKBP8],4.47 ± 0.1,4.59 ± 0.41
AMYIDTEGTFRPERLLAVAERYGL [RAD51],2.37 ± 0.19,2.39 ± 0.27
ANETLAEMEEELRYAPLSFRNPMM [VTI1B],2.42 ± 0.63,3.01 ± 0.56
ANLTPNVGGYFVDKFVATMYHYLQ [P3H4],2.38 ± 0.69,2.23 ± 0.32
ANYTCVAMSTLGVIEAIAQITVKA [PTPRD],2.63 ± 0.16,3.29 ± 0.93
APFPPPPAADGARAPRSPGQVTPR [C6orf223],5.14 ± 0.54,5.25 ± 0.11
APRVRTAFTMEQVRTLEGVFQHHQ [VENTX],3.33 ± 0.22,3.26 ± 0.22
APSCAIMISTYEFGKSFFQRLNQD [SLC25A39],2.47 ± 0.86,2.06 ± 0.33
AQAIDFINRCSVLRQLGCKDGKNW [SPOPL],2.29 ± 0.24,2.58 ± 0.42
AQGRAGAPVPEPPKEEQQQALEQF [EPB41L3],5.62 ± 0.27,5.34 ± 0.3
AQHKDRSTQLEMQLEKPKPVKPVT [MNAT1],4.71 ± 0.24,4.82 ± 0.36
AQLELYQLQVESNSSQLLLRRHAG [SCARA5],2.71 ± 0.26,2.9 ± 0.25
AQMAKAAAEERALFTDRMATRSTT [WEE1],4.8 ± 0.21,4.87 ± 0.25

Sequence,protein stability index (treatment: DMSO),"protein stability index (treatment: MLN4924 1 uM, 8 h)"
AQRPGITHGVGLVLRVEQQPHLPL [SCNN1D],2.59 ± 0.17,2.85 ± 0.15
AQYDSWPHYPEYFQQPAPEYHQPQ [LOXL2],3.62 ± 0.48,3.8 ± 0.49
ARGSIVATYIFIFIGETLLSMNWA [SPNS1],3.4 ± 0.55,2.88 ± 0.55
ARIVEIYSRRLQVQERLTKQIAVA [GCH1],2.33 ± 0.37,2.37 ± 0.2
ASLAAAKKQLADETLLKVDLENRC [LMNB1],4.35 ± 0.12,4.46 ± 0.24
ASMSPDATKPSHWCSVAYWEHRTR [SMAD6],2.84 ± 0.24,2.87 ± 0.27
ASPSSSVRLGSFRSPRAGAGALLR [PRPH],3.65 ± 0.26,3.81 ± 0.19
ATNDDPWGPSGQLMGEIAKATFMY [CLINT1],2.34 ± 0.38,2.32 ± 0.27
AVLGLLLVLAAVVAWCYYSVSLRK [MYORG],2.69 ± 0.52,2.77 ± 0.78
AVPPTSSVPPVAGAPSVGQPGAGF [SNAP91],4.53 ± 0.23,4.42 ± 0.086
AVVRLNKKIYEAKRFTDAGFEHYD [CDC14A],2.54 ± 0.38,2.52 ± 0.25
AWFFSKTEELNKEVASNTEMIQTS [KRT15],3.83 ± 0.18,3.84 ± 0.081
AWGFPENATAPRSPSHSPEHRRTA [ELOA2],5 ± 0.15,4.87 ± 0.16
AWNIPMSNPGVDFGDVSERLALRQ [GALNT9],3.68 ± 0.27,3.91 ± 0.26
CADVLFILQDQEHIFAHRIYLATS [RHOBTB1],2.93 ± 0.44,2.89 ± 0.48
CCVKTELLGEETPMAADEGSAEKQ [EHMT1],5.45 ± 0.22,5.47 ± 0.12
CDPGMTAFEPEALGNLVEGLDFHR [CAMK2A],4.17 ± 0.096,4.2 ± 0.19
CELAQDKEAAEAIEAEGATAPLTE [CTNNB1],5.49 ± 0.41,5.53 ± 0.23
CGDVHGQFHDLMELFRIGGKSPDT [PPP2CA],2.69 ± 0.34,2.84 ± 0.15
CGWPRGKDAPCYESDTDIYETVAA [DRICH1],3.18 ± 0.23,3.31 ± 0.27
CHLAHELRLSCMERKKVQIRSMDP [DCAF4],2.39 ± 0.25,2.42 ± 0.2
